From PMC6542726 (Molecular psychiatry, 2018) come the findings set out here.

In experiment [1] the target is GABAA receptor associated protein (GABARAP) (mouse) (UniProt Q9DCD6). Kind of experiment: ITC.
Experiment [2] concerns the target GABAA receptor associated protein (GABARAP) (mouse, UniProt Q9DCD6 1-117). The experiment can be described thus: ITC.

GABAA receptor associated protein (GABARAP) (mouse), sequence (Q9DCD6 whole entry): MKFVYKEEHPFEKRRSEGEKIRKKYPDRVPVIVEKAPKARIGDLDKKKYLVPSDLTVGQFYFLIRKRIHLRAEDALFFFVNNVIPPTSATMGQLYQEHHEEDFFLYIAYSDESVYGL
GABAA receptor associated protein (GABARAP), sequence (Q9DCD6 whole entry): as above

As usually defined, the Kd is the free concentration of one partner at which half of the binding sites on the other are occupied at equilibrium, for simple one-to-one binding. Read a high Kd as a looser complex. “ankyrin-G W1989R (from UniProt O70511 1985-2010) (domain or fragment)”: in experiment [1], the Kd was 11 µM.
With PEDDWTEFSSEEIREARQAAASHAPS (domain or fragment) [ankyrin-G fragment of 26 amino acids (residues 1985-2010)], in experiment [2], the Kd is 0.0029 µM.
